B1: Hairpin Ribozyme (parent)
chain: GUCCUCUUUCACGUGCGCGUGAAAGAGAGAAGUGAACCAGAGAAACACACGUUGUGGUAUAUUACCUGGUA

This data set covers variants of B1. Nature of the data set: self-cleavage, relative activity (ratio to wild type); higher = more cleavage; co-transcriptional.
For the variant G19A A24C, the self-cleavage was found to be 0.615.
Under G19U A30C stands 0.128; under G19A A41C, 1.13.
The value for U20A A39G was 0.302; that for U20A A39C was 0.403; that for G19C U67C was 0.176.
As to U20A A30G, the self-cleavage came to 0.184.
Under G19C U52G stands 0.898.
Under U20C G29C stands 0.143; under G19U G56U, 0.179.
With C18U U55G, the self-cleavage was 0.382.
In the case of U20C A35G, the self-cleavage was found to be 0.71.
Under U20C U55C stands 0.159.
The value for U20C U55G was 0.426; that for U20G A31C was 0.164.
The value for U20G A31U was 0.0664.
As for U20A A71G, the self-cleavage was determined as 0.89.
Take U20C U67C: the self-cleavage was determined as 0.2.
Turning to U20G C37U, the self-cleavage is 0.594.
Under U20G C37G stands 0.395; under C18U C48A, 0.134.
As to C18U C48U, the self-cleavage was 0.0571.
Under U20C A26G stands 1.06; under U20G C50G, 0.225; under G19U C38G, 0.225.
Under G19U A35C stands 0.809; under C18U G19A, 1.08; under U20C A49C, 0.172.
As for C18U C37U, the self-cleavage turned out to be 0.713.
With C18U G29A, the self-cleavage is 0.194.
The value for G19U C46A was 0.17; that for G19U C46G was 0.157; that for U20C G21U was 0.652.
As to U20C G21A, the self-cleavage came out at 0.686.
Under U20G C38A stands 0.184; under U20G C38U, 0.542.
U20C A64U: the self-cleavage is 0.152.
The value for G19C A31C was 0.143; that for G19A A47U was 0.144.
Under G19A A64U stands 0.198; under U20C G69C, 0.239; under U20C G69A, 0.435.
The value for C18U A61C was 0.17; that for C18U A61U was 0.22; that for G19U U63C was 0.164.
In the case of U20C U62G, the self-cleavage was 0.116.
Consider U20C U62A, for which the self-cleavage is 0.202.
The value for G19U G40U was 0.194.
As for G19A G42U, the self-cleavage is 0.331.
Under G19C A23G stands 0.611.
Turning to C18U A59U, the self-cleavage is 0.176.
For the variant C18U A59C, the self-cleavage worked out at 0.237.
For C18U C38G, the self-cleavage was found to be 0.158.
With C18U A44C, the self-cleavage is 0.146.
G19A A61U: the self-cleavage worked out at 0.147.
With G19A A61G, the self-cleavage was 0.158.
Under U20C G32C stands 0.0574; under C18U U70A, 0.899; under G19U A22C, 0.625.
Take G19U A22G: the self-cleavage was determined as 0.715.
Under U20A A47C stands 0.293.
The value for G19U G68A was 0.286; that for C18U U52A was 1.09.
Under U20G A44U stands 0.0389; under G19U C50G, 0.199; under G19A G51C, 0.702.
For the variant G19A G51U, the self-cleavage is 0.881.
With G19C G69U, the self-cleavage is 0.212.
The value for U20C C38A was 0.152; that for U20A C65G was 0.182; that for U20A C65A was 0.857.
Under U20G A24U stands 0.731; under C18U A31G, 0.721; under C18U A31U, 0.112.
For C18U A31C, the self-cleavage was found to be 0.0854.
Take G19U A44C: the self-cleavage is 0.275.
As for G19U U58C, the self-cleavage amounted to 0.994.
Take G19U U58G: the self-cleavage was 0.672.
Take G19C U62A: the self-cleavage is 0.228.
For the variant G19C U62C, the self-cleavage was 0.283.
Take U20C C50U: the self-cleavage came to 0.476.
With U20C C50G, the self-cleavage came out at 0.262.
The value for C18G U58C was 0.802; that for U20C C66G was 0.152.
For U20G G32U, the self-cleavage is 0.162.
The value for U20G G32C was 0.105; that for U20G G40C was 0.188.
The value for C18U G54U was 0.702; that for C18U G54A was 0.695; that for U20A G29C was 0.203.
The value for U20A G29U was 0.165.
As for U20C A24U, the self-cleavage stood at 0.503.
The value for G19U A61U was 0.183.
Under C18U U20G stands 1.13; under G19C G27U, 0.27; under G19C G27C, 0.133.
Under G19C G27A stands 0.361.
As for G19C A22U, the self-cleavage was 0.487.
The value for U20G A30U was 0.137; that for U20G A30G was 0.148; that for G19U U52C was 0.818.
In the case of G19U U52A, the self-cleavage stood at 0.881.
U20C U60A: the self-cleavage amounted to 1.15.
Under U20C U60C stands 0.724; under U20G G34A, 1.19.
Under U20G G34C stands 1.14; under G19A U67A, 0.264.
The value for G19A A49G was 0.595; that for U20A U67A was 0.217; that for G19U C48U was 0.162.
Take C18U A39U: the self-cleavage was found to be 0.429.
Under C18U A39C stands 0.66.
On to C18U G27C, for which the self-cleavage was 0.228.
The value for G19A G69U was 0.213.
Under C18G U67G stands 0.275; under G19C A24U, 0.533; under G19C A24G, 0.889.
Under G19C A24C stands 0.639; under U20C A45G, 0.165; under U20C G56C, 0.216.
Take U20C G56U: the self-cleavage is 0.215.
The value for G19C G21C was 0.493; that for G19C U53C was 0.679; that for U20G A49U was 0.148.
With U20A U58G, the self-cleavage came to 0.762.
The value for U20A U58A was 0.709; that for U20C A30C was 0.217.
The value for G19U G54C was 0.437; that for G19C U63A was 0.107.
In the case of G19C U63G, the self-cleavage worked out at 0.123.
Take G19C U63C: the self-cleavage was 0.168.
Under G19C C65G stands 0.25; under G19C C65A, 0.877; under G19C A26U, 0.719.
The value for G19U G21U was 0.784.
In the case of G19C A43C, the self-cleavage was 0.11.
As to G19A U70G, the self-cleavage came to 0.917.
The value for U20C G40U was 0.19; that for U20C G40A was 0.314.
For U20A A61G, the self-cleavage was found to be 0.11.
Under U20A A61U stands 0.238; under G19A G40U, 0.179; under G19A G40A, 0.226.
Take U20G A28U: the self-cleavage came out at 0.643.
On to G19C A47G, for which the self-cleavage turned out to be 0.277.
Under C18G U70C stands 0.881; under U20G C66A, 0.0821.
For U20G C66G, the self-cleavage stood at 0.219.
Turning to C18U U53A, the self-cleavage came out at 1.
On to C18U U53G, for which the self-cleavage came to 0.644.
Take U20A C38A: the self-cleavage was determined as 0.168.
As to U20C A28U, the self-cleavage came out at 0.393.
As for U20C A28G, the self-cleavage was found to be 1.17.
The value for U20C A28C was 0.374.
The value for C18G U62G was 0.163; that for G19C G54C was 0.406.
The value for G19U C37G was 0.341; that for G19A U62C was 0.278.
On to U20A U63C, for which the self-cleavage amounted to 0.147.
Regarding G19A A44C, the self-cleavage amounted to 0.0966.
G19C A41U: the self-cleavage was determined as 1.11.
The value for G19C A41C was 1.24; that for G19C A44U was 0.0473; that for C18U G21A was 0.833.
Under C18U G21U stands 0.814; under C18U G21C, 0.883; under G19A A59U, 0.0875.
